Here are results for 1 molecule from US20180296691A1 (Pfizer, published 2018).

Broadly, the Kd is the concentration at which binding is half-saturated.

Holding throughout (test): SPR (BIAcore 2000), Eph receptor captured via anti-human antibody capture kit, monomeric human Ephrin-A4 12-400 nM as analyte, steady state affinity fit
(In general: In SPR one partner is held on a chip, and binding of the other changes the refractive index at the surface.)

Test [1] has as its target T1, recombinant EphA3 receptor (commercially available) (UniProt P29320 21-541, limits assumed).
T1 sequence (looked up): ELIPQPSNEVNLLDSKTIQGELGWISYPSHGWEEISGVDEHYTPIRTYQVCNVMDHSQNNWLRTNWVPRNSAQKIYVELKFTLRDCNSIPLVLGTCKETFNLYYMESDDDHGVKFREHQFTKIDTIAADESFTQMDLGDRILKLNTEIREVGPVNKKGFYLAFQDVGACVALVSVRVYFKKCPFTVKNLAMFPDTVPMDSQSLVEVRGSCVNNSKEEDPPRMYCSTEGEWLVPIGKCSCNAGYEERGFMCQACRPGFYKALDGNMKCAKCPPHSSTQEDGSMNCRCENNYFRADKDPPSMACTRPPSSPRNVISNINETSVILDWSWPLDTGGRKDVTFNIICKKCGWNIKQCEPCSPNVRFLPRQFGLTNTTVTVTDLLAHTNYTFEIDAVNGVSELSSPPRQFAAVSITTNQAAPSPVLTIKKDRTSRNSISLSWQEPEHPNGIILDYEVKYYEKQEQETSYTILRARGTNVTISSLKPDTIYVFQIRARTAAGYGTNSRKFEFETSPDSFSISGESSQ

Test [2] concerns the target T2, recombinant EphA10 receptor (commercially available) (UniProt Q5JZY3 34-565, limits assumed).
T2 sequence (looked up): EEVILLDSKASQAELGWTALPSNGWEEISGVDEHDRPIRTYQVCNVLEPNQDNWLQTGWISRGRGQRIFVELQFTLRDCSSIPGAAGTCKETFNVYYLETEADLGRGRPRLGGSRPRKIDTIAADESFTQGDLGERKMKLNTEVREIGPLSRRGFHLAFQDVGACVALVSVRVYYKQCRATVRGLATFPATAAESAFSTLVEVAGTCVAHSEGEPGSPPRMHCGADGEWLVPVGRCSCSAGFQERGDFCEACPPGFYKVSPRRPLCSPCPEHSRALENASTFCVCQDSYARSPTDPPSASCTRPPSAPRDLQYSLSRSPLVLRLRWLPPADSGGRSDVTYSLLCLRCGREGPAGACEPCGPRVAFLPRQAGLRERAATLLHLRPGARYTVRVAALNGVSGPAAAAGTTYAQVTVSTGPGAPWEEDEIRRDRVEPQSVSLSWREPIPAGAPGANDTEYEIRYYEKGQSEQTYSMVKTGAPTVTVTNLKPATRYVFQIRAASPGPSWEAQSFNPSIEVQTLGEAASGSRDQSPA

Test [3] has as its target recombinant EphA2 receptor (commercially available) (UniProt P29317 25-534, limits assumed).
Test [4] concerns the target T3, recombinant EphB2 receptor (commercially available) (UniProt P29323 19-543, limits assumed).
T3 sequence (looked up): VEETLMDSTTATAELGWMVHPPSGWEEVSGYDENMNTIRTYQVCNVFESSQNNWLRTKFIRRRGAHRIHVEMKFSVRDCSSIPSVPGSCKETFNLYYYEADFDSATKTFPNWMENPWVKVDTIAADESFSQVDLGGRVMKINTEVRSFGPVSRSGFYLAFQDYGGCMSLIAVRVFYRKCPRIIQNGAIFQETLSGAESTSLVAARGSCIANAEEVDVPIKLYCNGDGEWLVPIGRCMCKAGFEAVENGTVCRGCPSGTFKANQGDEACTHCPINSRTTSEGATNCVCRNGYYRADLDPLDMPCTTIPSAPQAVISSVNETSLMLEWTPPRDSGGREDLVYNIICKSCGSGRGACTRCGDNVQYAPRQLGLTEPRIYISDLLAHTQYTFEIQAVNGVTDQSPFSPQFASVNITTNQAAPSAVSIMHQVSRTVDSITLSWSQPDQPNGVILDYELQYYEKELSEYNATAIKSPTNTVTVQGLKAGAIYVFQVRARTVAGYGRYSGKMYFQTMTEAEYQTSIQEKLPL

Test [5] has as its target recombinant EphA4 receptor (commercially available) (UniProt P54764 20-547, limits assumed).
The target in test [6] is T4, recombinant EphA7 receptor (commercially available) (UniProt Q15375 28-555, limits assumed).
T4 sequence (looked up): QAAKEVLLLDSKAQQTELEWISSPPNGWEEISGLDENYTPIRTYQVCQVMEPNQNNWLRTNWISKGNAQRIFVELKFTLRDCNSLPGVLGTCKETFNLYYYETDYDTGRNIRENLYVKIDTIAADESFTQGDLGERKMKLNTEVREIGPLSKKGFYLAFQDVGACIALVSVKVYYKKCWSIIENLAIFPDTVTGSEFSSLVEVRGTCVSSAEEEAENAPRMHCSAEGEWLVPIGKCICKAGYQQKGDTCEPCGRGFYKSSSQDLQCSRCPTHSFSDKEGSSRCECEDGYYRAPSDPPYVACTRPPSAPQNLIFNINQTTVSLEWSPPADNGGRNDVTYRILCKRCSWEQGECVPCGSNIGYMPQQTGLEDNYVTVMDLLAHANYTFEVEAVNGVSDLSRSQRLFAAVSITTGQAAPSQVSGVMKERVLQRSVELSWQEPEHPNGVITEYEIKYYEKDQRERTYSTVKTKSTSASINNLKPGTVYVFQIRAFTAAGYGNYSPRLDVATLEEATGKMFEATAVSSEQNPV

The target of test [7] is T5, recombinant EphA6 receptor (commercially available) (UniProt Q9UF33 23-550, limits assumed).
T5 sequence (looked up): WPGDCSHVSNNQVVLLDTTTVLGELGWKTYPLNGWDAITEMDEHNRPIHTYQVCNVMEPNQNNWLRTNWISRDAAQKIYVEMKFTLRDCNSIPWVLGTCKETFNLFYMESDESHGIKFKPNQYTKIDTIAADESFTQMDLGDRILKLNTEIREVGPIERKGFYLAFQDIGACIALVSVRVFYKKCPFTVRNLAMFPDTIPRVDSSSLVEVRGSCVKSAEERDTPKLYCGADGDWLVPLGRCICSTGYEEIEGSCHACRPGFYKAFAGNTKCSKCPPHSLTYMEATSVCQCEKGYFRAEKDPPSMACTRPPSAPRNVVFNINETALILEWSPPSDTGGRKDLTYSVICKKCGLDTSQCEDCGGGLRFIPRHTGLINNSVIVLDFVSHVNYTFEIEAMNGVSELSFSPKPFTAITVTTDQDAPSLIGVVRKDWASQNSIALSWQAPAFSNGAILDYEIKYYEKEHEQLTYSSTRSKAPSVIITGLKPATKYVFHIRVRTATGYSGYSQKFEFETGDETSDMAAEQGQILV

recombinant EphA4 receptor (commercially available), sequence (P54764 20-547 limits assumed): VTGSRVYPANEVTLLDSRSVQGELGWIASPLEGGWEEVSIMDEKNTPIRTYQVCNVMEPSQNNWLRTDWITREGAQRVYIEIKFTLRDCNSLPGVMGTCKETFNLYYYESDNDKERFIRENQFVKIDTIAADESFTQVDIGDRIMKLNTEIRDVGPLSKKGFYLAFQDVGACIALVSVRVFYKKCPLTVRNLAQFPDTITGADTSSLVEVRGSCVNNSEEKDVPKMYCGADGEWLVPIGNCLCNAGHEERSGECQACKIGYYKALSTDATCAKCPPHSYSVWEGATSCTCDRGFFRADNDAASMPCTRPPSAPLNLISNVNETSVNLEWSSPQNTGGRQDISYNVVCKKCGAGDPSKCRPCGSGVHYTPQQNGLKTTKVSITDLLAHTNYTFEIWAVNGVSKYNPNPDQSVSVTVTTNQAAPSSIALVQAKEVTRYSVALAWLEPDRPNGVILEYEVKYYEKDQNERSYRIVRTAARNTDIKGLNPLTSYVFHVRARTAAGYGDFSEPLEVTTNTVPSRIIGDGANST
recombinant EphA2 receptor (commercially available), sequence (P29317 25-534 limits assumed): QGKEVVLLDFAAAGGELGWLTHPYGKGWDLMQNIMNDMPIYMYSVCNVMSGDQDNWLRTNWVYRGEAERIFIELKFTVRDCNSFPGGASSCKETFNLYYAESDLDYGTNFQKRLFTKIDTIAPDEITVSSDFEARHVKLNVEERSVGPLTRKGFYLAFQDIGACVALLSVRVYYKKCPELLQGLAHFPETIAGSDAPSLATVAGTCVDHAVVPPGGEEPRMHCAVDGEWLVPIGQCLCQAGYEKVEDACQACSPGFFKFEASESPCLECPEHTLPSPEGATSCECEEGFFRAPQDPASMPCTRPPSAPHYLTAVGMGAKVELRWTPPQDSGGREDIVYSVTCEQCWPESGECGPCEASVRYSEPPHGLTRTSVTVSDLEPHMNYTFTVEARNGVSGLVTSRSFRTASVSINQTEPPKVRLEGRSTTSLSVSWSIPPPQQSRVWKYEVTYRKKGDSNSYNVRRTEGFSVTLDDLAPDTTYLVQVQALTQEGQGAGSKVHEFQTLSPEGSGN

B1: monomeric human Ephrin-A4 (ligand)
chain: LRHVVYWNSSNPRLLRGDAVVELGLNDYLDIVCPHYEGPGPPEGPETFALYMVDWPGYESCQAEGPRAYKRWVCSLPFGHVQFSEKIQRFTPFSLGFEFLPGETYYYISVPTPESSGQCLRLQVSVCCKERKSESAHPVGSPGES
For B1, the Kd came to 77 nM in test [1]; 431 nM in test [2]; 31 nM in test [3]; 135 nM in test [4]; 122 nM in test [5]; 86 nM in test [6]. Besides, in test [7], the Kd stood at 82 nM.
